{"source": "the supplement of paper PMC6755084", "parents": {"B1": {"name": "minF1; a variant is named by its letters at N, in order (parent)", "chain": "GAGACCGCAACTGAAAAGTTGTTANNNNAANGNNNGGTTGAATTTCTGCACGTAGAAGCAAAAGGC"}}}
{"variants_of": "B1", "assay": "fraction ligated after 30 min (ligated reads / total reads); higher = more ligase activity", "conditions": "with F1*subA RNA substrate (template-directed ligation), 42 °C", "how_it_was_run": "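Templates from an oligo pool encoding minimized ligase ribozyme variants were amplified by PCR, transcribed with T7, and purified on gels. Gel electrophoresis separated ligated from unligated RNAs, which were then reverse transcribed using barcoded primers and sequenced on a MiSeq, keeping core bases with quality ≥30. For each variant, fraction ligated equals ligated reads divided by total reads.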"}
{"variant": "GAGACCGCAACTGAAAAGTTGTTATCAGAAATGGATGGGTTATTTCTGCACGTAGAAGCAAAAGGC", "note": "[TCAGAGGA G32T G36T T38G T39G G40T A41T]", "fraction ligated": 0.00781}
{"variant": "GAGACCGCAACTGAAAAGTTGTTACAAAATGGATGGGTTGAATTTCTGCACGTAGAAGCAAAAGGC", "note": "[CAAAGATG A30T]", "fraction ligated": 0.00974}
{"variant": "GAGACCGCAACTGAAAAGTTGTTATCAGAAAGATGGGTTGAATTTCTGCACGTAGAAGCAAAAGGC", "note": "[TCAGAATG]", "fraction ligated": 0.00903}
{"variant": "GAGACCGCAACTGAAAAGTTGTTATCAGAAAGGATGGGTTAATTTCTGCACGTAGAAGCAAAAGGC", "note": "[TCAGAGAT T38G G40T]", "fraction ligated": 0.004}
{"variant": "GAGACCGCAACTGAAAAGTTGTATCGAAATGGATGGGTTGAATTTCTGCACGTAGAAGCAAAAGGC", "note": "[CGAAGATG T23A A24T A30T]", "fraction ligated": 0.0868}
{"variant": "GAGACCGCAACTGAAAAGTTGTATCAGAATGGATGGGTTGAATTTCTGCACGTAGAAGCAAAAGGC", "note": "[CAGAGATG T23A A24T A30T]", "fraction ligated": 0.0668}
{"variant": "GAGACCGCAACTGAAAAGTTGTTATCAAAATGGATGGGTTAATTTCTGCACGTAGAAGCAAAAGGC", "note": "[TCAATGAT T38G G40T]", "fraction ligated": 0.0188}
{"variant": "GAGACCGCAACTGAAAAGTTGTTTCAGAAATGATGGGTTGAATTTCTGCACGTAGAAGCAAAAGGC", "note": "[CAGATATG A24T]", "fraction ligated": 0.00546}
{"variant": "GAGACCGCAACTGAAAAGTTGTTAAGAAATGGATGGGTTGAATTTCTGCACGTAGAAGCAAAAGGC", "note": "[AGAAGATG A30T]", "fraction ligated": 0.0065}
{"variant": "GAGACCGCAACTGAAAAGTTGTTACAGAAATGGATGGGTTAATTTCTGCACGTAGAAGCAAAAGGC", "note": "[CAGATGAT T38G G40T]", "fraction ligated": 0.00757}
{"variant": "GAGACCGCAACTGAAAAGTTGTTATCAGAAATGGGGGTTGAATTTCTGCACGTAGAAGCAAAAGGC", "note": "[TCAGAGGG G32T]", "fraction ligated": 0.00695}
{"variant": "GAGACCGCAACTGAAAAGTTGTATCAGAAATGGATGGGTTAATTTCTGCACGTAGAAGCAAAAGGC", "note": "[CAGATGAT T23A A24T T38G G40T]", "fraction ligated": 0.0102}
{"variant": "GAGACCGCAACTGAAAAGTTGTTACGAAATGGATGGGTTGAATTTCTGCACGTAGAAGCAAAAGGC", "note": "[CGAAGATG A30T]", "fraction ligated": 0.0292}
{"variant": "GAGACCGCAACTGAAAAGTTGTATCAGAAATGGTGGGTTGAATTTCTGCACGTAGAAGCAAAAGGC", "note": "[CAGATGTG T23A A24T]", "fraction ligated": 0.00275}
{"variant": "GAGACCGCAACTGAAAAGTTGTTATCGAAAGGATGGGTTGAATTTCTGCACGTAGAAGCAAAAGGC", "note": "[TCGAGATG]", "fraction ligated": 0.00545}
{"variant": "GAGACCGCAACTGAAAAGTTGTTATCAGAAATGGAGGTTGAATTTCTGCACGTAGAAGCAAAAGGC", "note": "[TCAGAGGA G32T]", "fraction ligated": 0.0037}
{"variant": "GAGACCGCAACTGAAAAGTTGTTTAGAAATGGATGGGTTGAATTTCTGCACGTAGAAGCAAAAGGC", "note": "[AGAAGATG A24T A30T]", "fraction ligated": 0.00936}
{"variant": "GAGACCGCAACTGAAAAGTTGTTATAGAAATGATGGGTTGAATTTCTGCACGTAGAAGCAAAAGGC", "note": "[TAGATATG]", "fraction ligated": 0.00408}
{"variant": "GAGACCGCAACTGAAAAGTTGTTATCAGATGGATGGGTTGAATTTCTGCACGTAGAAGCAAAAGGC", "note": "[TCAGGATG A30T]", "fraction ligated": 0.163}
{"variant": "GAGACCGCAACTGAAAAGTTGTATCAGAAATGGATGGGTTGATTTCTGCACGTAGAAGCAAAAGGC", "note": "[CAGATGAT T23A A24T T38G G40T A41G]", "fraction ligated": 0.0927}
{"variant": "GAGACCGCAACTGAAAAGTTGTTATAGAAATGGATGGGTTGATTTCTGCACGTAGAAGCAAAAGGC", "note": "[TAGATGAT T38G G40T A41G]", "fraction ligated": 0.025}
{"variant": "GAGACCGCAACTGAAAAGTTGTTATCGAAATGGAGGGTTGAATTTCTGCACGTAGAAGCAAAAGGC", "note": "[TCGATGAG]", "fraction ligated": 0.00384}
{"variant": "GAGACCGCAACTGAAAAGTTGTTATCGAAATGGATGGTTGAATTTCTGCACGTAGAAGCAAAAGGC", "note": "[TCGATGAT]", "fraction ligated": 0.0366}
{"variant": "GAGACCGCAACTGAAAAGTTGTTTCAGAAATGGTGGGTTGAATTTCTGCACGTAGAAGCAAAAGGC", "note": "[CAGATGTG A24T]", "fraction ligated": 0.00498}
{"variant": "GAGACCGCAACTGAAAAGTTGTTATCAAATGGATGGGTTGAATTTCTGCACGTAGAAGCAAAAGGC", "note": "[TCAAGATG A30T]", "fraction ligated": 0.111}
{"variant": "GAGACCGCAACTGAAAAGTTGTATAGAAATGGATGGGTTGAATTTCTGCACGTAGAAGCAAAAGGC", "note": "[AGAAGATG T23A A24T A30T]", "fraction ligated": 0.00339}
{"variant": "GAGACCGCAACTGAAAAGTTGTTATCGAAATGGATGGGTTAATTTCTGCACGTAGAAGCAAAAGGC", "note": "[TCGATGAT T38G G40T]", "fraction ligated": 0.0543}
{"variant": "GAGACCGCAACTGAAAAGTTGTTATCAAAATGGTGGGTTGAATTTCTGCACGTAGAAGCAAAAGGC", "note": "[TCAATGTG]", "fraction ligated": 0.00417}
{"variant": "GAGACCGCAACTGAAAAGTTGTTACAGAAATGGTGGGTTGAATTTCTGCACGTAGAAGCAAAAGGC", "note": "[CAGATGTG]", "fraction ligated": 0.00446}
{"variant": "GAGACCGCAACTGAAAAGTTGTTATCAGAATGGATGGGTTGATTTCTGCACGTAGAAGCAAAAGGC", "note": "[TCAGTGAT T38G G40T A41G]", "fraction ligated": 0.392}
{"variant": "GAGACCGCAACTGAAAAGTTGTTTCAGAAATGGATGGGTTGATTTCTGCACGTAGAAGCAAAAGGC", "note": "[CAGATGAT A24T T38G G40T A41G]", "fraction ligated": 0.0273}
{"variant": "GAGACCGCAACTGAAAAGTTGTTATCAGAATGGATGGGTTAATTTCTGCACGTAGAAGCAAAAGGC", "note": "[TCAGTGAT T38G G40T]", "fraction ligated": 0.0275}
{"variant": "GAGACCGCAACTGAAAAGTTGTTATCAGAAATGAGGGTTGAATTTCTGCACGTAGAAGCAAAAGGC", "note": "[TCAGAGAG G32T]", "fraction ligated": 0.011}
{"variant": "GAGACCGCAACTGAAAAGTTGTTATCGAAATGATGGGTTGAATTTCTGCACGTAGAAGCAAAAGGC", "note": "[TCGATATG]", "fraction ligated": 0.0107}
{"variant": "GAGACCGCAACTGAAAAGTTGTATCAGAAATGGATGGTTGAATTTCTGCACGTAGAAGCAAAAGGC", "note": "[CAGATGAT T23A A24T]", "fraction ligated": 0.0249}
{"variant": "GAGACCGCAACTGAAAAGTTGTTATCAAAATGATGGGTTGAATTTCTGCACGTAGAAGCAAAAGGC", "note": "[TCAATATG]", "fraction ligated": 0.00928}
{"variant": "GAGACCGCAACTGAAAAGTTGTTATCAGAAATGGAGGGTTGATTTCTGCACGTAGAAGCAAAAGGC", "note": "[TCAGAGGA G32T T38G G40T A41G]", "fraction ligated": 0.00714}
{"variant": "GAGACCGCAACTGAAAAGTTGTTTCAGAAAGGATGGGTTGAATTTCTGCACGTAGAAGCAAAAGGC", "note": "[CAGAGATG A24T]", "fraction ligated": 0.00326}
{"variant": "GAGACCGCAACTGAAAAGTTGTACAGAAATGGATGGGTTGAATTTCTGCACGTAGAAGCAAAAGGC", "note": "[AGAAGATG T23A A24C A30T]", "fraction ligated": 0.00911}
{"variant": "GAGACCGCAACTGAAAAGTTGTTACAGAAATGGAGGGTTGAATTTCTGCACGTAGAAGCAAAAGGC", "note": "[CAGATGAG]", "fraction ligated": 0.00664}
{"variant": "GAGACCGCAACTGAAAAGTTGTTATAGAATGGATGGGTTGAATTTCTGCACGTAGAAGCAAAAGGC", "note": "[TAGAGATG A30T]", "fraction ligated": 0.0449}
